Data: publication PMC5518211

Key:
[1] = target: Calmodulin labeled with Cyanine5 (not stated (human brain CaM or recombinant bovine CaM bought)); assay: MST
[2] = target: Calmodulin (not stated (human brain CaM or recombinant bovine CaM bought)) (UniProt P0DP23); assay: SPR

Full-length recombinant human neurogranin with a His-tag at the N-terminus, sequence (Q92686 whole entry): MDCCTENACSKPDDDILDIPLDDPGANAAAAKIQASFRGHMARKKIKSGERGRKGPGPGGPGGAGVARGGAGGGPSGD

| Kd [1] [nM] | Kd [2] [µM] | Substance |
| --- | --- | --- |
| 190 | – | Peptide corresponding to the CaM-binding region of CaMKIIα (CaMKII 290-309) (from UniProt Q9UQM7 290-309) |
| 890 | – | Full-length recombinant human neurogranin with a His-tag at the N-terminus (from UniProt Q92686) (natural protein) |
| – | 14 | IQ-motif containing peptide of neurogranin (Ng 27-50) (from UniProt Q92686 27-50) |
